Measurements: EP4659811A1 (Université de Strasbourg, dated 2025)

Assays:
Assay in all cases: cell-based or functional assay
[1] = target: VP1 capsid protein on BKV pseudovirions of genotype Ia (BK-D; JF894228) (BK virus genotype Ia (BK-D))
[2] = target: VP1 capsid protein on BKV pseudovirions of genotype II (GBR-12; AB263920) (BK virus genotype II (GBR-12))
[3] = target: VP1 capsid protein on BKV pseudovirions of genotype IVc2 (A-66H; AB369093) (BK virus genotype IVc2 (A-66H))

Binder | Neutralization PSV IC50 [1] [µg/mL] | Neutralization PSV IC50 [2] [µg/mL] | Neutralization PSV IC50 [3] [µg/mL]
antibody C10P8 (antibody, V domains shown) VH: QVQLQESGPGLVKPSQTLSLTCTVSGGSISSGRYYWSWIRQPAGKGLEWIGRVYFSGSTNYNPSLKNRVTLSVDTSKNQFSLKLSSVIAADTAVYYCARAVRDYGDSYSFDYWGQGTLVTVSS VL: QSALTQPASVSGSPGQSITISCTGSSSDIGGYNYVSWYQVHPGKAPHLKIYDVVNRPSGVSNRFPGSKSGNTASLTISGLLADDEAYYYCCSYSIRGTPVFGGGTKLTVL | > 12.5 | > 12.5 | > 12.5
antibody B3P3 (antibody, V domains shown) VH: EVQLVESGGGVVQPGRSLRLSCVTSGFTFESYGIHWVRQAPGKGLEWVAVISNDGSIEDYAGSVKGRFTISGDKAKNTVYLQVNSLRPDDTAVYYCAKDAVGITGGSLYYSYGMDVWGQGTTVTVSS VL: DIQMTQSPSPLSAFIGGRVTITCRASQTIKNYLNWYQQKPGEAPKLLIYTASTLQNGVPSRFSGSRSGTDFTLTITSLQPEDFATYYCQQSYSAPYSFGQGTKLEIK | > 50 | > 50 | > 50
antibody B10P5 (antibody, V domains shown) VH: EVQLVESGGGLVQPGGSLRLSCSASGFTFSTYTMNWVRQAPGKGLDWVSYISSRSTSIYYADSVKGRFTISRDNAKNSLYLHMTSLRAEDTAVYYCVRDRGYYGSNWFDSWGQGTLVTVSS VL: QSALTQPRSVSGSPGQSVTISCTGTSSDVGNYNYVSWYQQHPGKAPRLMISDVTKRPSGVPDRFSGSKSGNTASLTISGLQAEDEGDYYCCAYAGSYTLVFGGGTKLTVL | > 50 | > 50 | > 50
antibody G7P3 (antibody, V domains shown) VH: EVQLVESGGGLVQPGGSLRLSCAASGFSFGSYSMNWVRQAPGKGLEWVSHISSGSSSIYYADSVKGRFTISRDSVKNSLYLQMNNLRAEDTAVYYCARGWTGYDAFDIWGQGTMVTVSS VL: DIQMTQSPSSLSASVGDRVTITCRASQVISNYLAWYQEKPGKVPKLLIYAASTLQSGVPSRFSGSGTGTDFTLTIRSLQPEDVATYYCQKYNNAPLTFGGGTKVEIK | 0.0008 | 0.0054 | > 50
antibody E8P5 (antibody, V domains shown) VH: EVQLVESGGGLVHPGGSLRLSCAASGFRFGTYSMNWVRQAPGKGLEWVSHISSGSSSIYYADSVKGRFTISRDSVKNSLYLQMNNLRAEDTAVYFCARGWTGYDAFDIWGQGTMVTVSS VL: DIQMTQSPSSLSASVGDRVTITCRASQVISNYLAWYQEKPGEVPKLLIYAASTLQSGVPSRFSGSGTGTDFTLTISSLQPEDVATYYCQKYNNAPLTFGGGTKVEIK | 0.0013 | 0.004 | > 50
antibody B7P3 (antibody, V domains shown) VH: EVQLVESGGGVVQPGRSLRLSCAASGFTFSNFGMHWVRQPPGKGLEWVAVISYDGSDKFYADSVKGRFTISRDNFKNTLYVQMNSLRAEDTAVYYCAKDRVRTKYYYDHSGPFDYWGRGTLVTVSS VL: SYVLTQPPSVSVAPGQTARIACGGNNIGSKSVHWYQQRPGQAPVLVVYDDDDRPSGIPERFSGSNSGNTATLTISRVEAGDEADYFCQVWMTNSDRPVFGGGTKLTVL | 0.0004 | 3.43 | > 50
antibody E10P5 (antibody, V domains shown) VH: QVQLQESGPGLVKPSQTLSLTCSVSGGSISSGNYYWSWIRQPAGKGLEWIGRIYTSGNTNYNPSLKSRVTMSVDTSKNQFSLKLSSVTATDTAVYYCARVRRDGYNAFDYWGQGTLVTVSS VL: SYELTQPPSVSVSPGQTASIDCSGHNLGDKFTCWYQQKPGQSPVLVIYQDSKRPSGIPERFSGSNSGNTATLTISGTQAMDEADYYCQAWDSDTLYVFGTGTTVTVL | 0.0004 | 0.0433 | > 50
